Molecular target: Cas9 from Streptococcus pyogenes (SpyCas9) (Streptococcus pyogenes) (UniProt Q99ZW2)

| in vitro DNA cleavage by SpyCas9 RNP (256 nM), Acr titrated 0-8192 nM: Acr concentration that inhibits SpyCas9 | Substance |
| --- | --- |
| 512 nM | AcrIIA25.1 (natural protein) |
| > 2050 nM | AcrIIA26 (natural protein) |
| > 2050 nM | AcrIIA27 (natural protein) |
| 512 nM | AcrIIA28 (natural protein) |
| 512 nM | AcrIIA32.1 (natural protein) |
